# Assay results from US11161912B2, “Heparanase-neutralizing monoclonal antibodies” (Technion Research & Development Foundation Limited, priority 2015, dated 2021).
# T1: recombinant active heparanase (Homo sapiens, UniProt Q9Y251, DEL111-157/INS109GSGSG)
# T1 sequence (Q9Y251 with tags, fused parts or gaps INS109GSGSG/DEL111-157): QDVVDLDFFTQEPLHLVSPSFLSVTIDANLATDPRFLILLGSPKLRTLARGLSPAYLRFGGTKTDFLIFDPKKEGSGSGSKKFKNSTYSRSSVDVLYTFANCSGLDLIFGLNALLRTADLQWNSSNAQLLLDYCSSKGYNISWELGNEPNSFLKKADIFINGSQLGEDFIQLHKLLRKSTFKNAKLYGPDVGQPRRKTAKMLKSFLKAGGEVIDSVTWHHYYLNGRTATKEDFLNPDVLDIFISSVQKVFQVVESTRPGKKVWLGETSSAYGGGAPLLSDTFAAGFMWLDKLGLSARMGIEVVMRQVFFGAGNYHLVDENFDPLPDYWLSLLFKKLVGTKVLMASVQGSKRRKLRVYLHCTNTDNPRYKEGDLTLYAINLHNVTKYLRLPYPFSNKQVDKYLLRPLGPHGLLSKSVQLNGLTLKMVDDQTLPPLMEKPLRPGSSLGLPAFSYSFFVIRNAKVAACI
# Tests used:
# [1] = tested on: Mouse B16 melanoma cells; assay: B16 melanoma experimental lung metastasis; format: in vivo; settings: C57Bl/6 mice, given with the cells: Ab #1453 250 μg, mAb 9E8 500 μg, SST0001 400 μg; lungs after 18 days
# Protocol: Experimental metastasis. B16 BL6 mouse melanoma (2×10^5) or LM2-4 human breast cancer cells (2×10^6) were injected into the tail vein of C57/BL mice or SCID/Beige mice (respectively) together with the indicated compound, essentially as described (Hostettler N, et al. 2007, FASEB J 21(13):3562-3572). Lungs were harvested 18 days thereafter and metastases occurrence was determined following fixation by gross inspection and histology (Weissmann et al, 2016, Proc Natl Acad Sci USA 113:704-709).
# FIG. 5A. Cell invasion. Cal-27 tongue carcinoma (left panels) and U87 glioma cells (right panels) (2×10^5) were plated onto Matrigel-coated filters in the presence of mouse IgM/IgG (upper panels), mAb 9E8 (2 μg; second left and middle panels). Invading cells adhering to the lower side of the membrane were visualized after 6 h. The number of invading cells per high power field is shown graphically at the lower panels. FIG. 5B, FIG. 5C. Tumor metastasis. FIG. 5B Mouse B16 melanoma cells (2×10^5) were inoculated into the tail vein of C57Bl/6 mice (n=7) together with rabbit IgG (300 μg; Con), Ab #1453 (250 μg), mAb 9E8 (500 μg) or SST0001 (400 μg). Lungs were harvested after 18 days, photographed (lower panel) and the number of metastatic lesions was counted (upper panel; p=0.001, 0.0006, 0.0001 for Con vs. Ab 1453, Con vs. mAb 9E8 and Con vs. SST0001, respectively). […]
# [2] = target: T1, recombinant active heparanase; assay: Heparanase enzymatic activity on 35S-labelled ECM, enzyme pre-incubated with antibody; format: biochemical; settings: antibody 2 μg/ml, heparanase 200 ng, pre-incubated 2 h on ice
# Protocol: Cell lysates, heparanase activity and protein blotting. Preparation of cell lysates, protein blotting, and measurement of heparanase enzymatic activity were carried out as described (Vlodaysky I, et al. 1999, Nature Med 5(7):793-802; Arvatz et at, 2011, FASEB J 24(12):4969-4976). […] Likewise, cell lysates or tumor extracts were incubated (12 h, 37° C., pH 6.0) with the labeled ECM and sulfate labeled degradation fragments released into the incubation medium were analyzed by gel filtration on a Sepharose CL-6B column. Degradation fragments of HS side chains are eluted from Sepharose 6B at 0.5<Kav<0.8 (peak II, fractions 17-30). Nearly intact sulfate labeled HSPGs are eluted just after the void volume (Kav<0.2, peak I, fractions 1-10). […]
# FIG. 2A. […] The mixture was then applied onto dishes coated with ^35S-labeled ECM and heparanase enzymatic activity was determined as described under “Materials and Methods”. […] Blood vessels density was quantified by counting the number of CD31-positive vessels per field and is presented graphically at the right second panel. At least 25 fields of each treatment were counted. […]
# FIG. 3A. […] The mixture was then applied onto ^35S-labeled ECM-coated dishes and heparanase activity was determined as described above (lower panel). […] Quantification of the extent of CD45 staining is shown graphically in the lower panel. […]
molecule,measurement,setting,value
"mAb 9E8: monoclonal IgM raised against KKDC peptide (Lys158-Asn171) of heparanase; VH SEQ ID NO: 7, VL SEQ ID NO: 8 (antibody, IgM constant regions) VH: EVKLLESGGGLVQPGGSLKLSCAASGFDFSRYWMSWVRQAPGKGLEWIGEINPDSSTINYTPSLKDKFIISRDNAKNTLYLQMSKVRSEDTALYYCARRGYEGNYAMDYWGQGTSVTVSSESQSFPNVFPLVSCESPLSDKNLVAMGCLAR VL: DIVMTQAAPSVPVTPGESVSISCRSSKSLLHSNGNTYLYWFLQRPGQSPQLLIYRMSNLASGVPDRFSGSGSGTAFTLRISRVEAEDVGVYYCMQHLEYPFTFGSGTKLEIKRADAAPTVSIFPPSSEQLTSGGASVVCFL",experimental lung metastasis (number of metastatic lesions),[1],inhibitory effect
same,neutralization of heparanase enzymatic activity,[2],neutralizes heparanase enzymatic activity to magnitude comparable with the polyclonal antibody #1453
